The values that follow come from paper PMC3390797, “Regulation of ASIC channels by a stomatin/STOML3 complex located in a mobile vesicle pool in sensory neurons” (Open Biology, 2012).

The assay concerns the target T1, Strep-tagged STOML3-AmCyan1 (stomatin-like protein-3, wild type) (mouse, UniProt Q6PE84 1-287).
T1 construct: Stomatin-like protein-3 (STOML3), mouse; Made from the STOML3-EGFP plasmid 'described previously' by cloning into pAmCyan1-N1 with a Strep tag; also called STOML3-Strep; STOML3-CFP; source: CHO cells, transiently transfected; in lysate (co-IP) and in live cells (FRET)
T1 sequence (looked up): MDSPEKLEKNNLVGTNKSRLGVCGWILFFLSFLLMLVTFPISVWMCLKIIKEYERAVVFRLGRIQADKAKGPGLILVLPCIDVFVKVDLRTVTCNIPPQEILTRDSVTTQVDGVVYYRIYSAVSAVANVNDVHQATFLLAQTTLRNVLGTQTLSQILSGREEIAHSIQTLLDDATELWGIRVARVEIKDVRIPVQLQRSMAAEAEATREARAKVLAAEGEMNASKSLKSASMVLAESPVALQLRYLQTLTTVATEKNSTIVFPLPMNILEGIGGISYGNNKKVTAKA
Kind of assay: FRET or BRET; three-cube FRET imaging of CHO cells co-expressing the AmCyan1 (CFP) and EYFP fusions; apparent FRET efficiency, calibrated with two fluorophore-tandem constructs. The settings on record: partners not purified.

B1: EYFP-tagged ASIC1a (natural protein, mouse, UniProt Q6NXK8-1 1-526, looked up)
chain: MELKTEEEEVGGVQPVSIQAFASSSTLHGLAHIFSYERLSLKRALWALCFLGSLAVLLCVCTERVQYYFCYHHVTKLDEVAASQLTFPAVTLCNLNEFRFSQVSKNDLYHAGELLALLNNRYEIPDTQMADEKQLEILQDKANFRSFKPKPFNMREFYDRAGHDIRDMLLSCHFRGEACSAEDFKVVFTRYGKCYTFNSGQDGRPRLKTMKGGTGNGLEIMLDIQQDEYLPVWGETDETSFEAGIKVQIHSQDEPPFIDQLGFGVAPGFQTFVSCQEQRLIYLPSPWGTCNAVTMDSDFFDSYSITACRIDCETRYLVENCNCRMVHMPGDAPYCTPEQYKECADPALDFLVEKDQEYCVCEMPCNLTRYGKELSMVKIPSKASAKYLAKKFNKSEQYIGENILVLDIFFEVLNYETIEQKKAYEIAGLLGDIGGQMGLFIGASILTVLELFDYAYEVIKHRLCRRGKCQKEAKRNSADKGVALSLDDVKRHNPCESLRGHPAGMTYAANILPHHPARGTFEDFTC
notes: source: CHO cells, transiently transfected, in live cells
With B1, the “apparent FRET efficiency (mean, cell-averaged)” value (“apparent FRET efficiency” below) is 14.4 ± 0.51%.

B2: EYFP-tagged ASIC2a (natural protein, rat, UniProt Q62962-1 1-512, looked up)
chain: MDLKESPSEGSLQPSSIQIFANTSTLHGIRHIFVYGPLTIRRVLWAVAFVGSLGLLLVESSERVSYYFSYQHVTKVDEVVAQSLVFPAVTLCNLNGFRFSRLTTNDLYHAGELLALLDVNLQIPDPHLADPTVLEALRQKANFKHYKPKQFSMLEFLHRVGHDLKDMMLYCKFKGQECGHQDFTTVFTKYGKCYMFNSGEDGKPLLTTVKGGTGNGLEIMLDIQQDEYLPIWGETEETTFEAGVKVQIHSQSEPPFIQELGFGVAPGFQTFVATQEQRLTYLPPPWGECRSSEMGLDFFPVYSITACRIDCETRYIVENCNCRMVHMPGDAPFCTPEQHKECAEPALGLLAEKDSNYCLCRTPCNLTRYNKELSMVKIPSKTSAKYLEKKFNKSEKYISENILVLDIFFEALNYETIEQKKAYEVAALLGDIGGQMGLFIGASLLTILELFDYIYELIKEKLLDLLGKEEEEGSHDENMSTCDTMPNHSETISHTVNVPLQTALGTLEEIAC
notes: also called ASIC2a-YFP; source: CHO cells, transiently transfected, in live cells
In the case of B2, the “apparent FRET efficiency” value is 13.4 ± 0.52%.

B3: EYFP-tagged ASIC1b (natural protein, mouse, UniProt Q6NXK8-2 1-559, looked up)
chain: MPIQIFCSVSFSSGEEAPGSMGDIWGPHHHHRQQQDSSESEEEEEKEKESGMELDEGDSPRDLVAFANSCTLHGASHVFVEGGPGPRQALWAVAFVIALGAFLCQVGDRVAYYLSYPHVTLLDEVATTELVFPAVTFCNTNAVRLSQLSYPDLLYLAPMLGLDESDDPGVPLAPPGPEAFSGEPFNLHRFYNRSCHRLEDMLLYCSYCGGPCGPHNFSVVFTRYGKCYTFNSGQDGRPRLKTMKGGTGNGLEIMLDIQQDEYLPVWGETDETSFEAGIKVQIHSQDEPPFIDQLGFGVAPGFQTFVSCQEQRLIYLPSPWGTCNAVTMDSDFFDSYSITACRIDCETRYLVENCNCRMVHMPGDAPYCTPEQYKECADPALDFLVEKDQEYCVCEMPCNLTRYGKELSMVKIPSKASAKYLAKKFNKSEQYIGENILVLDIFFEVLNYETIEQKKAYEIAGLLGDIGGQMGLFIGASILTVLELFDYAYEVIKHRLCRRGKCQKEAKRNSADKGVALSLDDVKRHNPCESLRGHPAGMTYAANILPHHPARGTFEDFTC
notes: as for B1
With B3, the “apparent FRET efficiency” value was determined as 13.9 ± 0.73%.

B4: EYFP-tagged ASIC2b (natural protein, rat, UniProt Q62962-2 1-563, looked up)
chain: MSRSGGARLPATALSGPGRFRMAREQPAPVAVAAARQPGGDRSGDPALQGPGVARRGRPSLSRTKLHGLRHMCAGRTAAGGSFQRRALWVLAFCTSLGLLLSWSSNRLLYWLSFPSHTRVHREWSRQLPFPAVTVCNNNPLRFPRLSKGDLYYAGHWLGLLLPNRTARPLVSELLRGDEPRRQWFRKLADFRLFLPPRHFEGISAAFMDRLGHQLEDMLLSCKYRGELCGPHNFSSVFTKYGKCYMFNSGEDGKPLLTTVKGGTGNGLEIMLDIQQDEYLPIWGETEETTFEAGVKVQIHSQSEPPFIQELGFGVAPGFQTFVATQEQRLTYLPPPWGECRSSEMGLDFFPVYSITACRIDCETRYIVENCNCRMVHMPGDAPFCTPEQHKECAEPALGLLAEKDSNYCLCRTPCNLTRYNKELSMVKIPSKTSAKYLEKKFNKSEKYISENILVLDIFFEALNYETIEQKKAYEVAALLGDIGGQMGLFIGASLLTILELFDYIYELIKEKLLDLLGKEEEEGSHDENMSTCDTMPNHSETISHTVNVPLQTALGTLEEIAC
notes: as for B1
Consider B4, for which the “apparent FRET efficiency” value turned out to be 13.1 ± 0.49%.

B5: EYFP-tagged ASIC3 (natural protein, rat, UniProt O35240 1-533, looked up)
chain: MKPRSGLEEAQRRQASDIRVFASSCTMHGLGHIFGPGGLTLRRGLWATAVLLSLAAFLYQVAERVRYYGEFHHKTTLDERESHQLTFPAVTLCNINPLRRSRLTPNDLHWAGTALLGLDPAEHAAYLRALGQPPAPPGFMPSPTFDMAQLYARAGHSLEDMLLDCRYRGQPCGPENFTVIFTRMGQCYTFNSGAHGAELLTTPKGGAGNGLEIMLDVQQEEYLPIWKDMEETPFEVGIRVQIHSQDEPPAIDQLGFGAAPGHQTFVSCQQQQLSFLPPPWGDCNTASLDPDDFDPEPSDPLGSPRPRPSPPYSLIGCRLACESRYVARKCGCRMMHMPGNSPVCSPQQYKDCASPALDAMLRKDTCVCPNPCATTRYAKELSMVRIPSRASARYLARKYNRSESYITENVLVLDIFFEALNYEAVEQKAAYEVSELLGDIGGQMGLFIGASLLTILEILDYLCEVFQDRVLGYFWNRRSAQKRSGNTLLQEELNGHRTHVPHLSLGPRPPTTPCAVTKTLSASHRTCYLVTRL
notes: as for B1
Consider B5, for which the “apparent FRET efficiency” value was found to be 15.5 ± 0.67%.

B6: EYFP-tagged ASIC4 (natural protein, mouse, UniProt Q7TNS7 1-539, looked up)
chain: MPIEIVCKIKFAEEDAKPKEKEAGDEQSLLGAAQGPAAPRDLATFASTSTLHGLGRACGPGPHGLRRTLWALALLTSLAAFLYQAASLARGYLTRPHLVAMDPAAPAPVAGFPAVTLCNINRFRHSALSDADIFHLANLTGLPPKDRDGHRAAGLRYPEPDMVDILNRTGHQLADMLKSCNFSGHHCSASNFSVVYTRYGKCYTFNADPQSSLPSRAGGMGSGLEIMLDIQQEEYLPIWRETNETSFEAGIRVQIHSQEEPPYIHQLGFGVSPGFQTFVSCQEQRLTYLPQPWGNCRAESELREPELQGYSAYSVSACRLRCEKEAVLQRCHCRMVHMPGNETICPPNIYIECADHTLDSLGGGSEGPCFCPTPCNLTRYGKEISMVKIPNRGSARYLARKYNRNETYIRENFLVLDVFFEALTSEAMEQQAAYGLSALLGDLGGQMGLFIGASILTLLEILDYIYEVSWDRLKRVWRRPKTPLRTSTGGISTLGLQELKEQSPCPSRGRAEGGGASSLLPNHHHPHGPPGSLFEDFAC
notes: as for B1
With B6, the “apparent FRET efficiency” value was 15.4 ± 0.65%.
